Test results taken from US20230226096A1 (Orna Therapeutics, Inc., priority 2020, published 2023).

What follows are molecules tested on HEK293 cells. Settings: luminescence from secreted Gluc in supernatant 24 hours after transfection of HEK293 cells; circular RNA encoding Gluc with the named IRES (UTR truncated to 675 nt).
Type: cell-based, human

Row | Molecule | Expression
1 | Burpengary Virus (nucleic acid) DNA: CTCCCCCCCCTTCCCCTTCCCGAGTAGGAGATTGGCATGTATGCTCTACATGCCCGATTCTCTCTTGCTCACTCTCTTAAATCCTGGTGGCGGTCTCGGATTAAACATTTATGTCGTATCTGGGATCGTCTTACTTGGTGGTAATTCCTCTGTTGCCTAGGGACCTCCGGACTGCCGGATTAAAGGTCTCAACAGAGGGCAATGTACAAGGAAGTCATTATACGCTAATTAAGTATTTGATGAATGACTAGTGTGACAGGGCTGAGGAACTCCCCCCGGGTAACCGGTGCCTCAGCGTCCGAAAGACACGTGGATAGGATCCACCCTGTTATACCCAGCACGATGTAATAGTCAAATACCTCTGATTTGTGTAGGATGTATAAATTGTGCATTGTAAATTTTGGGCGTAGAGATGCTCCGAAGGTACCCCGTTTTACGGGATCTGATCGGAGGCTAATTACCCAATGCGCCCTAAATAACTTCATATAATTTCTTTTTCTTTATTCAAA | 1.09E+07
2 | SAFV V13C (nucleic acid) DNA: TTTTCGACGTGGTTGGAATTGCCATCATTTCCGACGAAAGTGCTATCATGCCTCCCCGATTATGTGATGTTTTCTGCCCTGCTGGGCGGAGCATTCTCGGGTTGAGAAACCTTGAATCTTTTTCTTTGGAACCTTGGTTCCCCCGGTCTAAGCCGCTTGGAATATGACAGGGTTATTTTCTTGATCTTATTTCTACTTTTGCGGGTTCTATCCGTAAAAAGGGTACGTGCTGCCCCTTCCTTCTCTGGAGAATTCACACGGCGGTCTTTCCGTCTCTCAACAAGTGTGAATGCAGCATGCCGGAAACGGTGAAGAAAACAGTTTTCTGTGGAAATTTAGAGTGCACATCGAAACAGCTGTAGCGACCTCACAGTAGCAGCGGACTCCCCTCTTGGCGACAAGAGCCTCTGCGGCCAAAAGCCCCGTGGATAAGATCCACTGCTGTGAGCGGTGCAACCCCAGCACCCTGGTTCGATGATCATTCTCTATGGAACCAGAAAATGGTTTTCTCAAGCCCTCCGGTAGAGAAGCCAAGAATGTCCTGAAGGTACCCCGCGTGCGGGATCTGATCAGGAGACCAATTGGCGGTGCTTTACACTGTCACTTTGGTTTAAAAATTGTCACAGCTTCTCCAAACCAAGTGGTCTTGGTTTTCCAATTTTGTTGAATGGCAAT | 9.32E+07
3 | ABPV (nucleic acid, Acute bee paralysis virus) DNA: CCCGTCAAAATAACAACTTATAACACGATGTTACCCGAAGAAACCATTTTAGTGTAACATTTAAGATTAGAAGTAGTTCATCTAATAGAGATAGGCACTATTAGAAGGAGGCCTTTTCTAAAGGAGCCGTTAGTCAGCCCAGACAAGCGCAGTACTTTAGAAGAGAGAAGTTCCCCGATAGCGACCGAAAAGACGCGTTTTCCGTGCTAACTAATTTAAATGTGGGAACGAATATTATTATTGAAATTATGTGAGCCACGTAGCAATCAAGTCATGTTTTTGTCACTACGTTTACTCATCTAATGTAGATAATTTTGTTTAAGTACCTATTTAGGTGTCATCCCACCAGAGAAGAAATAATACGTACCGGAACCCAGAGTACACCCCTTATTTTAAGCCTTACTGGGCTTCTCTGTTAGTTAGTAATCTGGCCCACGTTTTGCGTTGAGTGGGGTCCCAACAGTAGGAATTCGACGGACAAGTAGCAAGCGAGTCGGTACCAATTGGTTTAGCCTTCGAAATTACTCTGGGCAGGAAGTTACTAAACGAGAACTTTCTGCTTAAATCCCAACGCACAAACAAATAGAGTAAATAAATAATTATA | 6.48E+05
4 | Ia Io (nucleic acid) DNA: GGTGTCCGGGTGTGTGGGATAGACCCAGATGTGCAGTGGATGCGAGCATTTGAGTCAGAGTAGGAGCAAGCCCAGGGGCAAAGGGACCACATTGTGTATCCCGAATGAAGGATCGAGATTTCTCTCCTCATTACCCGGTGTCTTGTCACTGTTGGGGGGGCCCAACAGTCTTAGTCCTATACTGCCTGATAGGGTCGCGGCTGGCCGGACTCAAGTGCTATAGTCAGTTGATTTTCACTC | 1.35E+06
5 | Hunnivirus A2 (nucleic acid, listed as Hunnivirus sp.) DNA: ACAGTTTTTGACAAGGACCCTCACCTGTCAATCGGGACCACCACTTTCAGTGACCCCGTGCGAAGTGTTGAGAGAAAGTGAGCTTTCTTACCCTTCATTTGTGAACCCTTCAGTCGAAGCCGCTTGGAATAAGATGGAAGGAAATGTTCATTCTAAATGGAGTGAAACATATACTTAATTTCCAGTGTTTAGTGGTCTTTCCACTAGACAACGGCACTGTCTTGCCGGAACTCTACACACCAACATTCCACGCTTGTGGGACTCAAATGTTGGATGACACAGTTGTAGCTGGAACTGAGTGTTTAGTGCACTCTGTGTAACAGTGAAAACAATGTGATCACTTCGGTGGGCTAGTAGCCTGTGGACTAACAACTGGTAACAGTTGCCTCAGGGGCCAAAAGCCACGGTGTTAACAGCACCCTACTAGTTTGATTGGAGCAATCCATGATGTTACAGAGTTAGTAACTGCCAAACAGATTGTACTGGTATCTTGGCATACCGTGCAACTTAGGATAGTGAAGGATGCCCTGGCGGTACCCATAGGTAACAAGTGACACTATGGATCTAAACAGGGGCTCACTCTACGTTGCTTTACAACTAGCTGTGAGTTAAAAAACGTCTAACTATCCACAACCTAGGGGACTAGGTTTTCCTTTTTATTTTTATACACAACTA | 6.38E+06
6 | Hunnivirus A1 (nucleic acid, listed as Hunnivirus sp.) DNA: TAACGTTTGGCAAGAACCCTCACCTGTCAATTGGGACCACCACTTTCAGTGACCCCATGCGAAGTAGTGAGAGAGAATAAGCTTTCTTACCCTTCATTTGTGAACCCTTCAGTCGAAGCCGCTTGGAATAAGATAGGAGGAAAAGTTCATTCTAAATGGAGTGAAACATGTACTTCAGAATTTCTAGCACGCGCTGGGCTTTCTTGCGTGTGACGGCACTGTCTTGCCGGAGCTCTCCACACTGACACCCCACGCTTGTGGACCTTGGTGGCAGATGACAACACTGCAGCTGGAATTGAGTGTCTGGTACACTCTGTGTAACAGTGAAAACAATGTGATCACTTCGGTGAGCTAGTAGCCTGTGGACCAACAACTGGTAACAGTTGCCTCAGGGGCCAAAAGCCACGGTGTTTACAGCACCCTACTGGTTTGATTGGAGCAATCCAAGATGTCACAGAGTTAGTAATTGCCAAGCAGTCCGTACTGGTATCTTGACATACCGTGCAGTTTTGGATAGTGAAGGATGCCCTGACGGTACCCATAGGTAACAAGTGACACTATGGATCTAAGCAGGGGCTCACTCTACGCTGCTTTACAGCTGGCTGTGAGTTAAAAAACGTCTAGCTATCCACAACCTAGGGGACTAGGTTTTCCTTTTATTTAGATTACAATTAT | 1.61E+06
7 | Mobovirus A (nucleic acid) DNA: TATTCTCCCACAAACCTTCTTGTAACTCTGTTAAGCCTTTTACATCCATGTAATTTAATTTTCTCCACCTAAAAGGATTTCCCCCATGGTCCTTTTTGGCTCGAACAAATGCTACATAGGGTCTTGTTTTCTCCCCCTGGCTCTCTTGCCAGGGTTCCATACCCCAATTCCTCTATTTCCATGATTTTTCATCATGGTTTATTTTTACTGTCTTCTTATTTTCTGAGGTGACCAACTCCTAAGCCGACTGGGTCGCGGAAGCCCGGACTCCTCGCATCACTAGGGTGCGTAGCGATGTAGGCGAAAATATTGGTTGCTAGATGCATACATATAGTGAATTGATACTACACCAAACTCTGTTCTTTTTGAAACTAGCTATTTTCTAAGTAAGGTAGGCTACGGGTGAAACCTTACCATTGCAGGTACGTGAACCGCAACGGACATTTGGCCGAAGACTGGTGTACCCACGTCAGTTATAGGACCTCTTCAACGTTGGTGGACGGCATGTCACTGATTAGTTAGGCTAGTGAATTTAAGTTCAGGGGGTATCTTTTAGCTTAAGCGTGTATTCTAGTAGGACTTGCAGAGCCTCCCCACCTAGGAGGATCTCTGTTTATAGCCCCTTTTCCTTGTTCCGTTAGTTTTCCACACTTTTACAATATTTGATGATTTGTT | 3.44E+06
8 | BRBV-1 (nucleic acid, Bovine rhinitis B virus) DNA: CCCCCCCTACTTAAAGATGTACGGTTTTGCTGCTTTCACAGAGTAAAGCAGATAGAGGTTCTGAACTGGCAAACTTTACCTCGAAACACGCCCGTTTTTCTGCTGTGTCTCACAGACTGTCCTGTCACACTTGTGGCGGCTTGTGACACTGTGAACATAGTGAGACCGACCAAGACAACAGTTTCAAGTGATGAACATCGAACGTCTAAACTGGATCCGTAACTGGACATGTTAGGGCAAGGACTTCCCCCCTGGTAACAGGAGCCTGGCTGGCCAAAAGCCCCGCTCATTGAGCCTAGCATGTTGTCGACCCTGGACTGTTCAGTTTAGTTAGTACATGGAATTCACTTGTCACGGTTCTTCTGAACTCGGTCTCTAGTATGACAGCCTAAGGATGCCCTCCAGGTACCCCGGGGTAACAAGTGACACCCGGGATCTGAGGAGGGGACTACTTTACGTAGTTTAAAAAACGTCTAAGCTGTTATGGTGACCAGAGGCTGGCACCTTTCACTTTTAAAATTACACTACTGACTACAATTGAAGTGATAACGGTTTTACAGGCTTTCAAACTAGTTACACAAGCACTGTTTTCCTGACACACACACTTT | 3.34E+06
9 | BRAV-2 (nucleic acid, Bovine rhinitis A virus) DNA: TTTGTTTTGCGGCTTTGCCGTTGTTCGGGTTTTACCTGTTTTCACACAGCAAAACAGGCCTTCTAGTTTCGTGCTTAAACGAGATCATGCTCGAACTAGAACTACATAGCTGGTCACTGGACTCATACCACACCTTGTGGAGCTTTATGGGAAAGGTGGCTAGTGGGCTGTGGAAGTGACTCTGACCACATGCCTCTCAAGTGTGGGAAATCACGGATCGGTGTAGCGACGACAACAGGCCTTGGGACACCCTCTCCAGTAATGGAGACCCAAGGGGCCAAAAGCCACGCCTCGTGCCCTGTTGTTCACAACCCCAGTGCGACCCGTGTTAGTACCTATTTGCGAGAACTGTGTCTGGACAGCTAAACACAACCCTAGTGGGAGACTAAGGATGCCCAGGAGGTACCCGGAGGTAACAAGTGACACTCTGGATCTGACCTGGGGAGAGAGGGCTTGCTTTACAGGCGCCTCTCTTTAAAAAGCTTCTATGTCTCATCAGGCACCGGAGGCCGGGCCTTTTCCTTTTAAAATTACACTTA | 3.98E+06
10 | GFTV (nucleic acid) DNA: ATGGGGAAGGGTATGACGTGCCCCTTCCTTCTTCGGAGAACTCGCTCTAGTGGTCTTTCCACTTCTGGAAAAGAGTGAGTGCACGTGATCAGGACCGTCGAAGACGACAAATACCTGGTGCTCTATCTCATAGACGTTTCACAGCTGTAGCGACCCCTCAGTAGCAGCGGAAGCCCCCTCCTGGTGACAGGAGCCTCTGCGGCCAAAAGCCACGTGGATAAGATCCACTGCTGAGGGCGGTGCGACCCTAGCACCCTGTGATGCATACTAGTTGTAGCGTGCCGGACTATTGGTCTGTCATAAGACACCTGATAGAGAGACCAAGAATGTCCTGGAGGTACCCCGCGTGCGGGATCTGACCAGGAGACCATTGCCCAATGCTTTACAACGGGTCTATGGTTTAAAAACTGTCGCAGTCTCTCCAAACCAAGTGGTCTTGGTTTTCAATTACTTTGAATATTTCACT | 1.23E+06
